Assay results reported in US20120053320A1 (BOARD OF TRUSTEES OF MICHIGAN STATE UNIVERSITY, published 2012).

Target: the molecule itself
Test: SDS-PAGE, immunoblot and MALDI-TOF of purified and depolymerized pili (self-assembly)

B1: PilA pilin subunit of Geobacter sulfurreducens (mature PilA, ca. 6.5-7 kDa band from octyl-glucoside-depolymerized pili) (other)
chain: FTLIELLIVVAIIGILAAIAIPQFSAYRVKAYNSAASSDLRNLKTALESAFADDQTYPPES
notes: Native protein from strain PCA, denatured on SDS-PAGE and blotted; also called nanowire pilin subunit; PilA band
Q: Does B1 bind?
A: Result: binds
